Results: the RNAGym collection of RNA variant scans (doi:10.7554/elife.80360)

B1: HDV Ribozyme (parent)
chain: GGCCGGCAUGGUCCCAGCCUCCUCGCUGGCGCCGGCUGGGCAACAUUCCGAGGGGACCGUCCCCUCGGUAAUGGCGAAUGGGACCCA

Variants of: B1
Assay: self-cleavage, relative activity (ratio to wild type); higher = more cleavage; co-transcriptional

Row | Variant | self-cleavage
1 | GGCCGGCAUGGUCCCAGCCUCCUCGCUGGCGCCGGCUGGGCAACAUUCCGAGGGGACCGUCCACUCGGUAAUGGCAAAUGGGACCCA [C63A G76A] | 0.875
2 | GGCCGGCAUGGUCCCAGCCUUCUCGCUGGUGCCGGCUGGGCAACAUUCCGAGGGGACCGUCCCCUCGGUAAUGGCGAAUGGGACCCA [C21U C30U] | 0.0755
3 | GGCCGGCAUGGUCCCAGCCUCCUCGCUGGCGCUGGCUGGGCAACAUUCCGAGGGGACCGUGCCCUCGGUAAUGGCGAAUGGGACCCA [C33U C61G] | 0.831
4 | GGCCGGCAUGGUCCCAGCCUCCUCGCUGGCGCCGGCUGUGCAACAUUCCGAGGGGACCGUCCCCUCGGUAAUGGCGAAUGGGACACA [G39U C85A] | 0.609
5 | GGCCGGCAUGGUCCCAGCCGCCUCGCUGGCGCCGGCUGGGCAACAUUCCGAGGGGACCGUCGCCUCGGUAAUGGCGAAUGGGACCCA [U20G C62G] | 0.0755
6 | GGCCGGCAUGGUCCCAGCCUCCUCGCUGGCGCCGGCUGGGCAACAUUCCGAGGGGACAGUCCCCUCGGUAAUGGCGAAUGUGACCCA [C58A G81U] | 0.397
7 | GGCCGGCAUGGUCCCAGCCUCCUCGCUGGCGCCGGCUGGGCAACAUUCCGAGGGGACCGUCCCCUCGGUAGUAGCGAAUGGGACCCA [A71G G73A] | 0.689
8 | GGCCGGCAUGGUCCCAGCCUCCUCGCUGGCGCCGGAUGGGCAACAUUCCGAGGGGACCGUCCCGUCGGUAAUGGCGAAUGGGACCCA [C36A C64G] | 0.0652
9 | GGCCGGCAUGGUCCCUGCCUCCUCGCUGGCGCCGGCUGGGCAACAUUCCGAGGGGACCGCCCCCUCGGUAAUGGCGAAUGGGACCCA [A16U U60C] | 0.831
10 | GGCCGGCAUGGUCCCAGCCUCCUCGCUGGCGCCGGCUGGGCAACAUUCCGAGGGGACCGUCCCCUAGGUAAUGGCGAAUGCGACCCA [C66A G81C] | 0.163
11 | GGCCGGCAUGGUCCGAGCCUCCUCGCUGGCGCCGGCUGGGCAACAGUCCGAGGGGACCGUCCCCUCGGUAAUGGCGAAUGGGACCCA [C15G U46G] | 0.755
12 | GGCCGGCAUGGUCCCAGGCUCCUCGCUGGCGCCGGCUGGGCAACAUUCCGAGGGGACCGUCCCCUCGGUAAUAGCGAAUGGGACCCA [C18G G73A] | 0
13 | GGCCGGCAUGGUCCCAGCAUCCUCGUUGGCGCCGGCUGGGCAACAUUCCGAGGGGACCGUCCCCUCGGUAAUGGCGAAUGGGACCCA [C19A C26U] | 0.929
14 | GGCCGGCACGGUCCCAGCCUCCUCGAUGGCGCCGGCUGGGCAACAUUCCGAGGGGACCGUCCCCUCGGUAAUGGCGAAUGGGACCCA [U9C C26A] | 1.25
15 | GGCCGGCAUGGUCCCAGCCUCCUCGCUGGCGCCGGCUGGGCAAAAUUCCGAGGGGACCGUCCCCUCGGUAAUGGCGGAUGGGACCCA [C44A A77G] | 0.396
16 | GGCCGGCAUGGUCCCAGCCUCGUCGCUGGCGCCGGCUGGGCAACAUUCCGAGGGGACCGUCCCCUCCGUAAUGGCGAAUGGGACCCA [C22G G67C] | 0.132
17 | GGCCGGCAUGGUCCCCGCCUCCUCGCUGGCGCCGACUGGGCAACAUUCCGAGGGGACCGUCCCCUCGGUAAUGGCGAAUGGGACCCA [A16C G35A] | 0.175
18 | GGCCGGCAUGGUCCCCGCCUCCUCGCUGGCGCCGUCUGGGCAACAUUCCGAGGGGACCGUCCCCUCGGUAAUGGCGAAUGGGACCCA [A16C G35U] | 0.107
19 | GGCCGGCAUGGUCCCAGCCUCCUCGCUGGCGCCGGCUGGGCUACAUUCCGAGGGGACCGUCCCCUCGGUACUGGCGAAUGGGACCCA [A42U A71C] | 0.342
20 | GGCCGGCAUAGUCCCAGCCUCCUCGCUGGCGCCGGCUGGGCAACAUUCCGAGGGGACCGUCCCCUCGGUAAUGGCGAACGGGACCCA [G10A U79C] | 0.0882
21 | GGCCGGCAUGGUCCGAACCUCCUCGCUGGCGCCGGCUGGGCAACAUUCCGAGGGGACCGUCCCCUCGGUAAUGGCGAAUGGGACCCA [C15G G17A] | 0.133
22 | GGCCGGCAUGGUCUCAGCCUCCUCGCUGGCGCCGGCUGGGCAACAUCCCGAGGGGACCGUCCCCUCGGUAAUGGCGAAUGGGACCCA [C14U U47C] | 1.13

Row | Variant | self-cleavage
23 | GGCCGGCAAGGUCCCAGCCUCAUCGCUGGCGCCGGCUGGGCAACAUUCCGAGGGGACCGUCCCCUCGGUAAUGGCGAAUGGGACCCA [U9A C22A] | 0.388
24 | GGCCGGCAUCGUCCCAGCCUCCUCGCUGGCGCCGGCUGGGAAACAUUCCGAGGGGACCGUCCCCUCGGUAAUGGCGAAUGGGACCCA [G10C C41A] | 0.767
25 | GGCCGGCAUGGUCCUAGCCUACUCGCUGGCGCCGGCUGGGCAACAUUCCGAGGGGACCGUCCCCUCGGUAAUGGCGAAUGGGACCCA [C15U C21A] | 0
26 | GGCCGGCAUGGUCUCACCCUCCUCGCUGGCGCCGGCUGGGCAACAUUCCGAGGGGACCGUCCCCUCGGUAAUGGCGAAUGGGACCCA [C14U G17C] | 0.156
27 | GGCCGGCAUGGUCCCAGCCUCCUCGCUGGCGCCGGCUGGGCAACAUUCCGAGGGGACCCUCCCCCCGGUAAUGGCGAAUGGGACCCA [G59C U65C] | 1.01
28 | GGCCGGCAUGGUCCCAGCCUCCUCGCUGGCGCCGGCCGGGCAACAUUCCGAGGGGACCGUCCCCUCGGUAAUGGCGGAUGGGACCCA [U37C A77G] | 1.03
29 | GGCCGGCAUGGUCCCAGCCUCCUCUCUGGCGCCGGCUGGGCAACAUUCCGAGGGCACCGUCCCCUCGGUAAUGGCGAAUGGGACCCA [G25U G55C] | 0.228
30 | GGCCGGCAUGGUCCCAGCCUCCUCGCUGGCGCCGGCUGGGCAACAUUCCGAGGGGACCGUACCCUCGGUAAUGGCGAAUGGGACCCG [C61A A87G] | 1
31 | GGCCGGGAUGGUCCCAGCCUCCACGCUGGCGCCGGCUGGGCAACAUUCCGAGGGGACCGUCCCCUCGGUAAUGGCGAAUGGGACCCA [C7G U23A] | 0.227
32 | GGCCGGCAUGGUCCCAGCCUCCUCGCUGGCGCCGGCUGGGCAACAUUCCGAGGGGACCGUCCGCUCGGUAAUGGCGAAUGGCACCCA [C63G G82C] | 0.136
33 | GUCCGGCAUGGUCCCAGCCUCCUCGCUGGGGCCGGCUGGGCAACAUUCCGAGGGGACCGUCCCCUCGGUAAUGGCGAAUGGGACCCA [G2U C30G] | 0.0601
34 | GGCCGGCAUGGUCCCAGCCUCCCCGCUGGCGCCGGCUCGGCAACAUUCCGAGGGGACCGUCCCCUCGGUAAUGGCGAAUGGGACCCA [U23C G38C] | 0.277
35 | GGCCGCCAUGGUCCCAGCCUCCUCGCUGGCGCCGGCUGAGCAACAUUCCGAGGGGACCGUCCCCUCGGUAAUGGCGAAUGGGACCCA [G6C G39A] | 0.0405
36 | GGCCGGCAUGGUCCCACCCUCCUCGCUGGCGCCGGCUGGGCAACAUUCCGAGGGGACCGUCCCCUCGGUAACGGCGAAUGGGACCCA [G17C U72C] | 0
37 | GGCCGGCAUGGUCCCAGCCUCCUCGCUGGCGCCGGCUGGUCAACAUUCCGAGGGGACCGUCCCCUCCGUAAUGGCGAAUGGGACCCA [G40U G67C] | 0.639
38 | GGCCGGCAUGGUCCCAGCCUCCUCCCUGGCGCCGGCUGGGCAACAUUCCGAGGGGACCGUCCCCUCGGUAAUGCCGAAUGGGACCCA [G25C G74C] | 0
39 | GGCCGGCAUGGUCCCAGCCUCCUCGCUGGCGCCGGCUGGGCAACAUUCCGAGGAUACCGUCCCCUCGGUAAUGGCGAAUGGGACCCA [G54A G55U] | 0.993
40 | GGCGGGCAUGGUCCCAGCCUCCUCGCUGGCGCCGGCUGGGCAACAUUCCGAGGGGACCGUCCCCUCGGUAAUGGCGAAUGGGACCCG [C4G A87G] | 0.0715
41 | GGCCGGCAUGGUCCCAGCCUCCUCCCUGGCGCCGGCUGGGCAACACUCCGAGGGGACCGUCCCCUCGGUAAUGGCGAAUGGGACCCA [G25C U46C] | 0.0875
42 | GGCCGGCAUGGUCCCAGCCUCCUCUCUGGCGCCGUCUGGGCAACAUUCCGAGGGGACCGUCCCCUCGGUAAUGGCGAAUGGGACCCA [G25U G35U] | 0.147
43 | GGCCGGCAUGGUCCCAGCCUCCUCGCUGGCGCCUGCUGGGCAACAUUCCGAGGGGACCGUCCCCUCUGUAAUGGCGAAUGGGACCCA [G34U G67U] | 0.231
44 | GGCCGGCAUGGUCCCAGCCUCCUCGCUGCCGCCGGCUGGGCAACAUUCCGGGGGGACCGUCCCCUCGGUAAUGGCGAAUGGGACCCA [G29C A51G] | 0

Row | Variant | self-cleavage
45 | GGCCGGCGUGGUCCCAGCCUCCUCGCUGACGCCGGCUGGGCAACAUUCCGAGGGGACCGUCCCCUCGGUAAUGGCGAAUGGGACCCA [A8G G29A] | 0
46 | GGCCGGCAUGGUCCCAGCCUCCUCGCUGGCGCCGGCUAGGCAACAUUCCGAGGGGACCGUCCCCUCGGUAAUGGCGCAUGGGACCCA [G38A A77C] | 0.0354
47 | GGCCGGCAUGGUCCCAGCCCCCUCGCUGGCGCCGGCUGGGCAACAUUCCGAGGGGACCGUCCCCUCCGUAAUGGCGAAUGGGACCCA [U20C G67C] | 0.405
48 | GGCCGGCAUGGUCCCAGCCUCCUUGCUGGCGCCGGCUGGGCAACAUUCCGAGUGGACCGUCCCCUCGGUAAUGGCGAAUGGGACCCA [C24U G53U] | 0.802
49 | GGCCGGCAUGGUCCCUGCCUCCUCGCUGGCGCCGGCUGGGCAACAUUCCGAGGGGACCGUCCCCUCGGUAAUGGCGAAUGGGACUCA [A16U C85U] | 1.03
50 | GGCCGGCAUGGUCUCAGCCUACUCGCUGGCGCCGGCUGGGCAACAUUCCGAGGGGACCGUCCCCUCGGUAAUGGCGAAUGGGACCCA [C14U C21A] | 0
51 | GGCCGGCAUGGUCCCAGCCUCCUCGCUGGCGCCGGCUGGGCAUCAUUCCGAGGGGACCGUCCCCUCGGAAAUGGCGAAUGGGACCCA [A43U U69A] | 0.449
52 | GGCCGGCAUGGUCCCAGCCUACUCGCUGGCGCCGACUGGGCAACAUUCCGAGGGGACCGUCCCCUCGGUAAUGGCGAAUGGGACCCA [C21A G35A] | 0.0804
53 | GGCCGGCAUGGUCCCAGCUUCCUCGCUGGCGCCGGCUGGGCAACAUUCCGAGGGGACCGUCCCCUCGGUAAUGGCGAGUGGGACCCA [C19U A78G] | 0.0405
54 | GGCCGGCAUGGUCCCAGCCUCCUCGCUGGCGCCGGCUGGGCAACAUUCCGAGGCGACCGUCCCCUCGGUAAUGGCGAAUGGGAGCCA [G54C C84G] | 0.917
55 | GGCCGGCAUGGUCCCAGCCUCCACGCUGGCGCCGGCUGGGCAACAUUCCGAGGGGACCGUCCCCUCUGUAAUGGCGAAUGGGACCCA [U23A G67U] | 0.849
56 | GGCCGGCAUGGUCCCAGCCUCCUCGCUGGCGCCGGCUGGGCAACAUUCCGAGGGGACCAUCCCCUCGGUAAUGGCGAAUGGGCCCCA [G59A A83C] | 0.554
57 | GGCCGGCAUGGUCCCAGCAUCCUCGCUGGCGCCGGCUGGGCAACAUUCCGAGGGGACCGUCCCCUCGGUAAUGUCGAAUGGGACCCA [C19A G74U] | 0.101
58 | GGCCGGCAUGGUCCCAGCCUCCUCGCUGGCGCCGGCUGGGCAACAUUCCGAGGGGACCGUCCCCUCGGUAAUGGCGAGUGGGAUCCA [A78G C84U] | 0.53
59 | GGCCGGCAUGGUCCCAGCCUCCUCUCUGGCGCCGGCUGGGCAACAUUCCGAGGGGACCGUCCCCUCGGUAUUGGCGAAUGGGACCCA [G25U A71U] | 0.0396
60 | GGCCGGCAUGGUCCCAGCCUCCUCGCUGGCGCCGGCUGGGCAACAUUCCGAGGGUACCGUCCCCUCGGUAAGGGCGAAUGGGACCCA [G55U U72G] | 0.652
61 | GGCCGGCAUAGUCCCAGCCUCCUCGCUGGAGCCGGCUGGGCAACAUUCCGAGGGGACCGUCCCCUCGGUAAUGGCGAAUGGGACCCA [G10A C30A] | 0.0913
62 | GGCCGGCAUGGUCCCAGCCUCCUCGCUGGCUCCGGCUGGGCAACAUUCCGAGGGGACCGUCCCCUCGGUAAUGGCGAAUGGGACCCC [G31U A87C] | 0.358
63 | GGCCGGCAUGGUCCCAGCCUCCCCGCUGGCGCCGGCUGCGCAACAUUCCGAGGGGACCGUCCCCUCGGUAAUGGCGAAUGGGACCCA [U23C G39C] | 0.244
64 | GGCCGGCAUGGUCCCAGCCUCCACGCUGGCGCCGGCUGGGCAACAUUCCCAGGGGACCGUCCCCUCGGUAAUGGCGAAUGGGACCCA [U23A G50C] | 0.831
